According to the RNAGym collection of RNA variant scans (doi:10.1073/pnas.2313332121):

B1: TPR t1 (parent)
chain: GACCAAUCUGCCCUCAGAGCUCGAGAACAUCUUCGGAUGCAGAGGAGGCAGGCUUCGGUGGCGCGAUAGCGCCAACGUCCUCAACCUCCAAUGCAUCCCACCACAUGAUGAUGCCUGAAGAGCCUUGGUUUUUUG

Variants of: B1
Experiment: polymerase ribozyme fitness, log enrichment relative to wild type (log ratio); higher = more active; in vitro selection for triplet polymerase activity
In short: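 Fitness measures genotype enrichment against wild-type enrichment on a logarithmic scale, with inverse-variance-weighted averaging of replicates. The logarithm is base 2, and genotypes were kept only with ≥10 input reads and ≥1 read per output in Illumina sequencing. The sequenced libraries came from one triplicate in vitro selection round, including frozen incubation at −7 °C, of PCR-built, transcribed mutant libraries of each subunit of a heterodimeric triplet polymerase ribozyme.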

| Variant | polymerase ribozyme fitness (log ratio) |
| --- | --- |
| A6G C11A U14A C28A G69U U78C | -3.37 |
| C13U C82G A90U C104A | -5.14 |
| U14G G48A C64U U116A C123G U131C | -1.29 |
| C28A C40G G44C G51A U112A | -6.79 |
| G44U U96C G120A G122A U129G | -2.51 |
| C15A C70U | -2.96 |
| A5U C70A C97U U125A | -2.48 |
| U9G C49A C104A | -1.57 |
| A18G G42A C72G G113A U132A | -2.54 |
| U9G C28G A111C G122A | -4.22 |
| C8G G44C C49A | 0.0557 |
| C12U G52A G63C U112A G120A | -0.326 |
| A5U C11G C64U U78C U126C | -0.928 |
| C13A C34A G69A U96A C115A | -7.14 |
| C13G G63U C123A | -0.659 |
| C22A G60C C73U | -5.64 |
| U38C G42A A118U G122A | -3.31 |
| G45U A50U A84U G117C | -7.49 |
| G48U C62U A84C C115A | -1.79 |
| C3U C11A G47A U87G | -2.77 |
| C4G A111G | -1.57 |
| U59C C64U C82G C94U | -1.7 |
| C15U G71A C102A | -5.13 |
| C73G C115G | -0.331 |

| Variant | polymerase ribozyme fitness (log ratio) |
| --- | --- |
| U14G A37G G42A G77A | -4.88 |
| C82G G110U | -3.25 |
| A41U C70U A84U U116C C124U U130A | -5.57 |
| C13U C40A C82A C89A | -2.38 |
| A50U G117U | -2.6 |
| C12A G19A C20A C53U C89A | -3.61 |
| C13G U78G | -2.05 |
| C88U C98A U106G | -5.05 |
| G10A C20U G57U G113U | -2.28 |
| C11G C64U C72A C89U | -1.01 |
| C72G U126G | -2.09 |
| C82G G93C U129G | -2.84 |
| G69U A111G | 1.89 |
| U55G U78A | -0.34 |
| C40U U55G U78G U92A G110C G122A C124G | -7.14 |
| C4G G113U | -3.96 |
| G19U C70U U78C C88U | -3.57 |
| U9A C13G U32A G39C A41U G60C C88U G117A | -7.75 |
| G36U G71A G120C C123G | -1 |
| C15G A50U U109A | -6.25 |
| C15U C56A G69C U78C A83G U112C U116A | -6.66 |
| C11U C15G G47A C86A A90G G117U G120C | -0.496 |
| C73A C104A | -1.07 |
| C13U C123U U132A | 1.91 |

| Variant | polymerase ribozyme fitness (log ratio) |
| --- | --- |
| G44U C89G | -0.509 |
| C3A G48A C86U A121G G127C U131G U132A | -0.349 |
| C70U C80U G113C A119G | -3.1 |
| U112G G122A G128A | -2.62 |
| U9G G23U | -6.6 |
| U59C U129C | -1.12 |
| A27U C28G G110C | -4 |
| C12A U116A C124A | -0.089 |
| A5C U7C A29G G71A C89U G93C | -4.81 |
| C13G G69C C94U C115U G135A | -3.43 |
| G51A C62U U112A G113U | -4.77 |
| A46U G69U C115A | -0.295 |
| A5C G47A U59A A100C U106C | -4.2 |
| C8G G17U G48A G57U U112G C114U | -5.14 |
| U9G C102U G135U | -2.17 |
| C11G U78G C98U | -0.594 |
| C72U U126C | -0.816 |
| G47A G61A U116A U129A | -4.01 |
| A18U U54A A83U | -4.98 |
| C8U G19A U21C U55C | -2.54 |
| G25U A121C | -4.83 |
| C49A C102A A121U G122U U133C | -0.655 |
| G61U C123U | 1.8 |
| C12G U112A U133G | 1.61 |

| Variant | polymerase ribozyme fitness (log ratio) |
| --- | --- |
| C53G G63A | -2.58 |
| C15G U92G C97U A118U | -4.66 |
| A100C G122A | -1.49 |
| C13G C124G U126A U131A | -0.0429 |
| C13U G63A C64U | -4.34 |
| A5G G44U G52A | -2 |
| A37C C40U U55C A91C | -3.28 |
| C13A G71A G120A A121U | -0.704 |
| C73U U87A A105U | -1.83 |
| C8U G19C C56A C115A | -2.03 |
| C56A G128C | -2.8 |
| U59C A108G | -2.19 |
| C13U G93C | -0.682 |
| A46U C49U | -1.49 |
| C22G C73A G93A | -4.3 |
| C12G G47C U96A C104A | -4.59 |
| A2G A29G | -1.34 |
| G47C G48A C86U A90U | -2.46 |
| G45U A84C C86A G117A | -3.94 |
| A6U A41G | 0.32 |
| C11U C53G C64U C101U U125A | -1.43 |
| C8G C12U A68G G122A C123U | -1.28 |
| A74U A83G C99U A100U G120U | -6.6 |
| A29G A46U G52U G57U C80U U87G C115G | -5.18 |

| Variant | polymerase ribozyme fitness (log ratio) |
| --- | --- |
| C13U C40A G120A U131G | -0.101 |
| C12U C70U G71A | -0.916 |
| C73G A119U U132C | -1.94 |
| A26U C98U | -4.2 |
| C8G A43C G45A A50G G113U G120C | -2.24 |
| C72U C102G | -5.51 |
| C56G G77C U130G | -0.115 |
| C15U G35C G69U | -2.64 |
| C15A G120A | 0.181 |
| C53G C64U G120A | 1.12 |
| C3U C4A U14G U32G A37G A46C C49A C53U C114G U116C | -5.66 |
| C40G U92C | -1.63 |
| A66G G117C C124U U132A | -6.03 |
| U7A A41U G71A C85U U87A | -4.06 |
| U9G G17A C56U A83U C89A C101A | -4.6 |
| G60U C94A | -0.596 |
| G44C C72U U78G C115G U133G | -1.84 |
| G48U G120U | -0.428 |
| U106G U125G | -3.81 |
| G52A G63C | -0.879 |
| C76A G117A C124A | -0.549 |
| G44C C102A | -3.4 |
| A29G A43G G107U C124U | -6.92 |
| A18U A41U C114U C115G U116G A121G G122U | -3.05 |

| Variant | polymerase ribozyme fitness (log ratio) |
| --- | --- |
| C13U A18U G42C U87A | -0.601 |
| C62G C114U | -4.41 |
| C13U G45U C56G U87A | -3.44 |
| A2U C8A G19U A24U A26U U33C A108G A111C A121G | -7.47 |
| G57U A74G | -0.836 |
| C13U G45U G60C C82U | -0.444 |
| C8G C11U A16C G44C U59C G60A C115G | -4.64 |
| C62U U129A | -1.09 |
| G36A U59A | -0.196 |
| C13U U14A A27U G47C | -6.21 |
| A95G U112C C124U | 1.01 |
| A6G C13U G19U C56A | -3.79 |
| C40A C72G U78C A121G U132A | 0.388 |
| U7A C53G A83G A84C | -0.766 |
| G36C C114A G120A | -2.49 |
| U38G C64U A66C A90U A91C | -5.32 |
| G47A C79U | -1.59 |
| C20A G71A | -3.79 |
| G69U G93A A118G G135U | -0.918 |
| C13U U55A C88U | -0.31 |
| U96G C102U | -2.86 |
| U21C A95C G107C U109A G113A C124U | -7.51 |
| C40U G60C G135U | -1.79 |
| C4G A16C C82U G120C C124A | -3.01 |

| Variant | polymerase ribozyme fitness (log ratio) |
| --- | --- |
| C12G A83G C88G U125G | -2.21 |
| C28A G69C C124A | -4.58 |
| C13U A29C C56U | -2.25 |
| C4A A46U C88U U92A U116C | -6.04 |
| C8A C40U A103C | -3.75 |
| C3A G120U | -0.479 |
| C11A A111C | -1.42 |
| U9A G51A U112A | -2.45 |
| C8A C123U | 1.44 |
| C8A U38A A46C | -1.09 |
| A2G G48U C53G C86U C98A C123G C124A | -6.57 |
| C89A A111C | -2.88 |
| A103C C123G | -2.94 |
| C97A C124A | -2.9 |
| C8U C13A A18C U54G C70U | -3.71 |
| C11A C40U G45A G61A U96G C124A | 0.365 |
| G23A C123A | -4.67 |
| C11U C12G | -0.553 |
| C11U C12U | -0.628 |
| C12U U33G C62G A105U U112G U125A | -6.16 |
| C20U G61A C88A | -1.39 |
| U55C U59G C114U | -1.28 |
| G58C G60U A118G | -0.24 |
